The record followed here is patent US20230414779A1, “ANTIGEN-BINDING FRAGMENTS AND USES THEREOF” (NewSouth Innovations Pty Limited, priority 2020, published 2023).

The subject of one assay is human platelets. As to the kind of experiment: Platelet binding, flow cytometry (platelet-based fluorescent assay). The note with it: labelled scFvs, flow cytometry, in words. The method, then: FIG. 1D provides graphs of platelet-based fluorescent assay measurements with KD and R^2 values for the parental scFv, HRU5 and HRU6. Non-linear regression analysis (one-site specific binding) was used to determine KD and R^2 values. GMF, geometric mean fluorescence.
Platelet-rich plasma (PRP) was obtained from whole blood after centrifugation at 200×g for 10 min. Washing/Suspension buffer (PBS, 0.5% BSA, 25 mM EDTA, pH 6.8) was used for platelet preparation throughout the experiment. 4 μl of PRP was incubated with various concentrations of fluorescently labelled HRU molecules for 30 min. Cells were washed once with 500 μl of buffer (PBS, 0.5% BSA, 25 mM EDTA, pH 6.8), suspended in 200 μl of PBS and analysed by flow cytometry (Cantoll, BD Biosciences).

Another assay addresses T1, thrombin (Homo sapiens, UniProt P00734).
T1 construct: purchased Diagnostica STAGO S.A.A
As to the kind of experiment: Thrombin time assay in plasma. The assay is classed as biochemical. The note with it: undiluted plasma, increasing concentrations, in words. The method, then:
FIG. 3B is a graph of a Thrombin Time Delay assay for HRU6 and HRU7. Increasing concentrations of HRU molecules were incubated with undiluted plasma prepared from ACD anticoagulated blood. Clotting time of control plasma (untreated plasma) is shown corresponding to 0 concentration (closed circle). […] Clotting time is shown in sec.
The STA-Thrombin kit (Diagnostica STAGO S.A.A.) was used for the determination of the thrombin time by a haemostasis analyser. Plasma was prepared from ACD anticoagulated normal blood by centrifugation for 10 min at 2500×g. 500 μl of undiluted plasma, in the absence and presence of different inhibitor concentrations (e.g., HRU6 and HRU7), was analysed. Thrombin time of the plasma was determined by the analyser.
HRU6 and HRU7 also contain anti-thrombin activity provided by the lepirudin and bivalirudin moieties respectively. The Hemoclot thrombin inhibitor assay was used to determine the anti-clotting activity. The normal clotting time range is 15-24 sec.

The test system of assay [1] is platelets. As to the kind of experiment: Thrombin-induced platelet aggregation. The assay is classed as cell-based, human. The note with it: 0.3 U of thrombin. The source says: For thrombin induced platelet aggregation samples were mixed as described above in the presence of 0.3 U of thrombin.
Assay [2] relates to platelets. As to the kind of experiment: Serotonin release assay (platelet activation). The assay is classed as cell-based, human. Particulars: 0.1 IU/ml heparin; induced by KKO (FIG. 4) / HIT serum. The source says: FIG. 4 is a graph of the serotonin release assay. Serotonin release was induced by a HIT-like monoclonal antibody (KKO) and was inhibited by parental scFv, HRU5, HRU6 or HRU7. Heparin was used at therapeutic low concentrations (L, 0.1 U) and at inhibitory high concentration (H,100 U). Dotted lines denote 0% and 20% CPMA. Values over 20% are considered positive. CPMA, counts per minute.
SRA is the gold standard to confirm the presence of platelet-activating HIT antibodies. Platelets from a healthy donor were labelled with Hydroxytryptamine Binoxalate, 5-[2-^14C]-(Serotonin) (^14C-5HT) (1.5 μl/ml) and mixed with heparin (0.1 (low dose) or 100 IU/ml (high dose)) in the presence of HIT serum. The protein of interest was then added to the reaction and incubated at room temperature for 1 h. After centrifugation the supernatant was collected and the ^14C-serotonin released was measured in a scintillation counter. The percentage of ^14C-serotonin released was calculated by determining the proportion in the supernatant relative to the remaining ^14C-serotonin in platelets. A test result is defined as positive if more than 20% serotonin release is detected with a therapeutic heparin concentration of (0.1 IU/ml) but not with a high dose of heparin (100 IU/ml).

“Also recorded” adds a separate entry of the source.

B1: HRU7: HRU5 linked to bivalirudin (an anticoagulant peptide) by a Ser2Gly12 linker (protein)
scFv: EVQLVESGPELKKPGETVKISCKASGYTFTNYGMNWVKQAPGKGLKWMGWLNTYTGESIYPDDFKGRFAFSLETSASTAYLQINNLKSEDTATYFCARGDYGYDDPLDYWGQGTSVTVSSGGGGWAWVWLTETAVGGGGSDIVMTQAPPSVPVTPGESVSISCRSSKSLLHTNGNTYLHWFLQKPGQSPRLLIYRMSVLASGVPDRFSGSGSGTDFTLKISRVEAEDVGVYYCMQHLEYPLTFGAGTKLEIKRAGGGGSGGGGSGGGGFPRPGGGGNGDFEEIPEEYLHHHHHH
B1: the “binding to human platelets” value with human platelets is listed as “stronger binding to human platelets than expected”. For the same molecule, the thrombin clotting time entry in the assay with thrombin is recorded as “significant increases in thrombin clotting time; also recorded: prolong clotting time in a dose-dependent manner”. For the same molecule, the “inhibition of thrombin-induced platelet aggregation” value with platelets [1] is recorded as “inhibit thrombin-induced platelet aggregation in a dose dependent manner”. In addition, the 14C-serotonin release entry with platelets [2] was “inhibited”.
